Data: paper PMC9468158, “Transmembrane helices mediate the formation of a stable ternary complex of b5R, cyt b5, and SCD1” (Communications Biology, 2022)

T1: SCD1, released from the linker-cleaved SCD1-cyt b5-b5R fusions (mouse, UniProt P13516 1-355)
T1 construct: stearoyl-CoA desaturase-1 (SCD1), mouse, UniProt P13516; stands for the SCD1 chain of the ternary fusion of the full-length proteins and of the sample with soluble cyt b5 and b5R; surmised: linker residues are left after TEV cleavage; not shown: GFP, N-terminal, cleaved
T1 sequence (looked up): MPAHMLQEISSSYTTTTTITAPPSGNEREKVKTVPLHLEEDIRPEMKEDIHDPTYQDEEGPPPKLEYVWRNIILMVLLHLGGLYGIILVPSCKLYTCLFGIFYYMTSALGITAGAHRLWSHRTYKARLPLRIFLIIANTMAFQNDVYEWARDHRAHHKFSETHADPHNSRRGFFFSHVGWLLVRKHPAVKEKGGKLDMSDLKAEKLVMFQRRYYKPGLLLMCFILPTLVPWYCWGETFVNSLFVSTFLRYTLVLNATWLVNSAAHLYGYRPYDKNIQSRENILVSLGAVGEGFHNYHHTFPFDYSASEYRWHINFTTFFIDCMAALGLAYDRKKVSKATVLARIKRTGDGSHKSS

T2: soluble b5R (24-301) (mouse, UniProt Q9DCN2 24-301)
T2 construct: source: E. coli BL21(DE3) (pET vector), purified (procedures similar to those for the full-length proteins)
T2 sequence (looked up): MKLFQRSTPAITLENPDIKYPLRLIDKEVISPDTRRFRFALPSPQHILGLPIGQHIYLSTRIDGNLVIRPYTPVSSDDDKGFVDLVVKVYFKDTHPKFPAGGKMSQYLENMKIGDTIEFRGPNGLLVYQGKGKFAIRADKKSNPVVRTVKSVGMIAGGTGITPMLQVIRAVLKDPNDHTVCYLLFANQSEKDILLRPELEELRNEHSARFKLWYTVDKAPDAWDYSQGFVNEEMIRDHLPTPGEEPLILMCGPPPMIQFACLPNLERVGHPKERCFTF

T3: SCD1, individual purified protein (mouse, UniProt P13516 1-355)
T3 construct: stearoyl-CoA desaturase-1 (SCD1), mouse, UniProt P13516; surmised: ENLYFQ of the TEV site is left at the C-terminus; source: HEK 293S (BacMam), purified (GFP nanobody resin, released by TEV protease, SEC in 1 mM DDM); not shown: GFP, C-terminal, cleaved
T3 sequence (looked up): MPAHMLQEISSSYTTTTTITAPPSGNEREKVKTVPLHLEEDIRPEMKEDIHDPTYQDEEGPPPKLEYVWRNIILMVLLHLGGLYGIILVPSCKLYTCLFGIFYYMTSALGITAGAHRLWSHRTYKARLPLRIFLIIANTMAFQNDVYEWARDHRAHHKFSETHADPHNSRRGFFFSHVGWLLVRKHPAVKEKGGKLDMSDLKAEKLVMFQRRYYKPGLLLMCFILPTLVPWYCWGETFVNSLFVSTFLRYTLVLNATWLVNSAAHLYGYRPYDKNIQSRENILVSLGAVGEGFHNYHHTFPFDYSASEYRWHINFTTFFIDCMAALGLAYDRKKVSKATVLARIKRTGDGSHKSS

T4: full-length b5R, released from the linker-cleaved cyt b5-b5R fusion (mouse, UniProt Q9DCN2 1-301)
T4 sequence (looked up): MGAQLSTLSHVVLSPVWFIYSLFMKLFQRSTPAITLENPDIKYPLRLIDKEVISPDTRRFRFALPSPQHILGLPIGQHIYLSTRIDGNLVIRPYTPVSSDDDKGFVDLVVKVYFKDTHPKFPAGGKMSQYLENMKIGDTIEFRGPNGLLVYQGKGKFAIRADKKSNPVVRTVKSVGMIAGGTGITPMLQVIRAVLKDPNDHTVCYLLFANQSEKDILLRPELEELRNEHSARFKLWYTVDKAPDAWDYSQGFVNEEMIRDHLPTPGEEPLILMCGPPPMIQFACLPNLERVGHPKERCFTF

T5: SCD1, released from the linker-cleaved SCD1-cyt b5 fusions (mouse, UniProt P13516 1-355)
T5 construct: stearoyl-CoA desaturase-1 (SCD1), mouse, UniProt P13516; stands for the SCD1 chain of the fusion with full-length cyt b5 (wild type and TM mutants) and of the fusion with the soluble domain of cyt b5; the GFP tag stood at the C-terminus of the fusion; surmised: ENLYFQ is left at the C-terminus after cleavage
T5 sequence (looked up): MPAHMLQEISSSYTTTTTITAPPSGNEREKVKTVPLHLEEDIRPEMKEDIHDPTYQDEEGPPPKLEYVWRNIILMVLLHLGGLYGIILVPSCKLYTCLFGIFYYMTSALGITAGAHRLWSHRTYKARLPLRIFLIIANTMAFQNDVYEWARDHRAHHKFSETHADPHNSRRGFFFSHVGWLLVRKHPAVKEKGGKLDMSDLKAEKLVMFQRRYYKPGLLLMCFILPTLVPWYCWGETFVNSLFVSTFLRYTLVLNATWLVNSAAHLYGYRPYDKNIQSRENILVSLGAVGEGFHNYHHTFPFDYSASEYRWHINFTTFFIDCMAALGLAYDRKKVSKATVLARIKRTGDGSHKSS


Experiments:
[1] = biological target: T1, SCD1, released from the linker-cleaved …; test: SEC; ternary fusion SCD1-cyt b5-b5R purified, linkers cleaved by TEV protease, Superdex 200 10/300 GL in 20 mM HEPES pH 7.5, 150 mM NaCl, 1 mM DDM; three proteins in the sample; settings: both partners purified
soluble b5R (24-301) = biological target: T2, soluble b5R (24-301); test: BLI; Octet, 30 °C, 1000 rpm; soluble cyt b5 coupled to AR2G (amine reactive) biosensors; analytes soluble b5R or SCD1 at 5, 2.5 and 1.25 µM; FPLC buffer (20 mM HEPES pH 7.5, 150 mM NaCl, 1 mM DDM) plus 0.1% BSA; KD from kon and koff of 1-exponential fits; settings: both partners purified
[2] = biological target: T3, SCD1, individual purified protein; test: as above; settings: both partners purified
[3] = biological target: T4, full-length b5R, released from the …; test: cell-based or functional assay
[4] = biological target: T4, full-length b5R, released from the …; test: SEC; TM mutants in the linker-cleavable fusions, purified and cleaved by TEV protease; SRE-10C SEC-300 (Sepax) on HPLC, FPLC buffer, 0.75 mL/min; heme absorbance (413 nm by the results, 423 nm by the methods) gives the ratio of heterodimer to monomeric cyt b5; settings: both partners purified
[5] = biological target: T5, SCD1, released from the linker-cleaved …; test: as above; settings: both partners purified

| Binder | Kd (soluble b5R (24-301)) [µM] | Kd [2] [µM] | binding result [4] | further results |
| --- | --- | --- | --- | --- |
| full-length b5R, released from the linker-cleaved SCD1-cyt b5-b5R fusion (enzyme, mouse, UniProt Q9DCN2 1-301, looked up, no extra residue after the C-terminus of b5R; surmised: a G is left at the N-terminus after TEV cleavage) MGAQLSTLSHVVLSPVWFIYSLFMKLFQRSTPAITLENPDIKYPLRLIDKEVISPDTRRFRFALPSPQHILGLPIGQHIYLSTRIDGNLVIRPYTPVSSDDDKGFVDLVVKVYFKDTHPKFPAGGKMSQYLENMKIGDTIEFRGPNGLLVYQGKGKFAIRADKKSNPVVRTVKSVGMIAGGTGITPMLQVIRAVLKDPNDHTVCYLLFANQSEKDILLRPELEELRNEHSARFKLWYTVDKAPDAWDYSQGFVNEEMIRDHLPTPGEEPLILMCGPPPMIQFACLPNLERVGHPKERCFTF |  |  |  | binding result [1]: binds |
| soluble cyt b5 (4-89), wild type (domain or fragment, mouse, UniProt P56395 4-89, looked up, cytochrome b5, mouse, UniProt P56395, soluble domain, residues 4-89; coupled by amines to AR2G biosensors; also called cyt b5 (WT); source: E. coli BL21(DE3) (pET vector), purified (procedures similar to those for the full-length proteins)) QSDKDVKYYTLEEIQKHKDSKSTWVILHHKVYDLTKFLEEHPGGEEVLREQAGGDATENFEDVGHSTDARELSKTYIIGELHPDDR | 2.71 | 4.42 |  |  |
| soluble cyt b5 (4-89) E49A (domain or fragment, mouse, UniProt P56395 4-89, looked up, cytochrome b5, mouse, UniProt P56395, soluble domain, residues 4-89; coupled by amines to AR2G biosensors; also called cyt b5 (E49A); source: E. coli BL21(DE3) (pET vector), purified (procedures similar to those for the full-length proteins)) QSDKDVKYYTLEEIQKHKDSKSTWVILHHKVYDLTKFLEEHPGGEAVLREQAGGDATENFEDVGHSTDARELSKTYIIGELHPDDR | 8.45 | 8.23 |  |  |
| soluble cyt b5 (4-89) E43A (domain or fragment, mouse, UniProt P56395 4-89, looked up, cytochrome b5, mouse, UniProt P56395, soluble domain, residues 4-89; coupled by amines to AR2G biosensors; also called cyt b5 (E43A); source: E. coli BL21(DE3) (pET vector), purified (procedures similar to those for the full-length proteins)) QSDKDVKYYTLEEIQKHKDSKSTWVILHHKVYDLTKFLEAHPGGEEVLREQAGGDATENFEDVGHSTDARELSKTYIIGELHPDDR | 9.63 | 11.2 |  |  |
| full-length cyt b5, released from the linker-cleaved cyt b5-b5R fusion (natural protein, mouse, UniProt P56395 1-134, looked up) MAGQSDKDVKYYTLEEIQKHKDSKSTWVILHHKVYDLTKFLEEHPGGEEVLREQAGGDATENFEDVGHSTDARELSKTYIIGELHPDDRSKIAKPSDTLITTVESNSSWWTNWVIPAISALAVALMYRLYMAED |  |  |  | difference of the electron transfer rate between no NaCl and 150 mM NaCl, stable binary complex [3]: 1.04 fold; rate of electron transfer from b5R to cyt b5 (k1, reduction of cyt b5) in the stable binary complex against the mixture of the individual proteins, 150 mM NaCl [3]: ~34 fold |
| cyt b5 Y127A, released from the linker-cleaved cyt b5-b5R-TEV chimera (natural protein, mouse, UniProt P56395 1-134, looked up, cytochrome b5, mouse, UniProt P56395; as m6 with the mutation; source: High Five cells (Bac-to-Bac), purified as a fusion with b5R, cleaved by TEV protease) MAGQSDKDVKYYTLEEIQKHKDSKSTWVILHHKVYDLTKFLEEHPGGEEVLREQAGGDATENFEDVGHSTDARELSKTYIIGELHPDDRSKIAKPSDTLITTVESNSSWWTNWVIPAISALAVALMARLYMAED |  |  | binds |  |
| cyt b5 S119A, released from the linker-cleaved cyt b5-b5R-TEV chimera (natural protein, mouse, UniProt P56395 1-134, looked up, cytochrome b5, mouse, UniProt P56395; as m6 with the mutation; source: High Five cells (Bac-to-Bac), purified as a fusion with b5R, cleaved by TEV protease) MAGQSDKDVKYYTLEEIQKHKDSKSTWVILHHKVYDLTKFLEEHPGGEEVLREQAGGDATENFEDVGHSTDARELSKTYIIGELHPDDRSKIAKPSDTLITTVESNSSWWTNWVIPAIAALAVALMYRLYMAED |  |  | binds |  |
| cyt b5 L121W, released from the linker-cleaved cyt b5-b5R-TEV chimera (natural protein, mouse, UniProt P56395 1-134, looked up, cytochrome b5, mouse, UniProt P56395; as m6 with the mutation; source: High Five cells (Bac-to-Bac), purified as a fusion with b5R, cleaved by TEV protease) MAGQSDKDVKYYTLEEIQKHKDSKSTWVILHHKVYDLTKFLEEHPGGEEVLREQAGGDATENFEDVGHSTDARELSKTYIIGELHPDDRSKIAKPSDTLITTVESNSSWWTNWVIPAISAWAVALMYRLYMAED |  |  | binds |  |
| cyt b5 R128A, released from the linker-cleaved SCD1-cyt b5-TEV chimera (natural protein, mouse, UniProt P56395 1-134, looked up, cytochrome b5, mouse, UniProt P56395; as m11 with the mutation; source: HEK 293S (BacMam), purified as a fusion with SCD1, cleaved by TEV protease; not shown: GFP, C-terminal, cleaved) MAGQSDKDVKYYTLEEIQKHKDSKSTWVILHHKVYDLTKFLEEHPGGEEVLREQAGGDATENFEDVGHSTDARELSKTYIIGELHPDDRSKIAKPSDTLITTVESNSSWWTNWVIPAISALAVALMYALYMAED |  |  |  | percent dissociation of the complex [5]: ~10% |
